Measured values from IntAct's records for PubMed 20890305.

B1: Mitogen-activated protein kinase kinase kinase 11 (Homo sapiens), Q16584 (parent)
chain: MEPLKSLFLKSPLGSWNGSGSGGGGGGGGGRPEGSPKAAGYANPVWTALFDYEPSGQDELALRKGDRVEVLSRDAAISGDEGWWAGQVGGQVGIFPSNYVSRGGGPPPCEVASFQELRLEEVIGIGGFGKVYRGSWRGELVAVKAARQDPDEDISVTAESVRQEARLFAMLAHPNIIALKAVCLEEPNLCLVMEYAAGGPLSRALAGRRVPPHVLVNWAVQIARGMHYLHCEALVPVIHRDLKSNNILLLQPIESDDMEHKTLKITDFGLAREWHKTTQMSAAGTYAWMAPEVIKASTFSKGSDVWSFGVLLWELLTGEVPYRGIDCLAVAYGVAVNKLTLPIPSTCPEPFAQLMADCWAQDPHRRPDFASILQQLEALEAQVLREMPRDSFHSMQEGWKREIQGLFDELRAKEKELLSREEELTRAAREQRSQAEQLRRREHLLAQWELEVFERELTLLLQQVDRERPHVRRRRGTFKRSKLRARDGGERISMPLDFKHRITVQASPGLDRRRNVFEVGPGDSPTFPRFRAIQLEPAEPGQAWGRQSPRRLEDSSNGERRACWAWGPSSPKPGEAQNGRRRSRMDEATWYLDSDDSSPLGSPSTPPALNGNPPRPSLEPEEPKRPVPAERGSSSGTPKLIQRALLRGTALLASLGLGRDLQPPGGPGRERGESPTTPPTPTPAPCPTEPPPSPLICFSLKTPDSPPTPAPLLLDLGIPVGQRSAKSPRREEEPRGGTVSPPPGTSRSAPGTPGTPRSPPLGLISRPRPSPLRSRIDPWSFVSAGPRPSPLPSPQPAPRRAPWTLFPDSDPFWDSPPANPFQGGPQDCRAQTKDMGAQAPWVPEAGP
B2: Merlin (Homo sapiens), P35240 (parent)
chain: MAGAIASRMSFSSLKRKQPKTFTVRIVTMDAEMEFNCEMKWKGKDLFDLVCRTLGLRETWFFGLQYTIKDTVAWLKMDKKVLDHDVSKEEPVTFHFLAKFYPENAEEELVQEITQHLFFLQVKKQILDEKIYCPPEASVLLASYAVQAKYGDYDPSVHKRGFLAQEELLPKRVINLYQMTPEMWEERITAWYAEHRGRARDEAEMEYLKIAQDLEMYGVNYFAIRNKKGTELLLGVDALGLHIYDPENRLTPKISFPWNEIRNISYSDKEFTIKPLDKKIDVFKFNSSKLRVNKLILQLCIGNHDLFMRRRKADSLEVQQMKAQAREEKARKQMERQRLAREKQMREEAERTRDELERRLLQMKEEATMANEALMRSEETADLLAEKAQITEEEAKLLAQKAAEAEQEMQRIKATAIRTEEEKRLMEQKVLEAEVLALKMAEESERRAKEADQLKQDLQEAREAERRAKQKLLEIATKPTYPPMNPIPAPLPPDIPSFNLIGDSLSFDFKDTDMKRLSMEIEKEKVEYMEKSKHLQEQLNELKTEIEALKLKERETALDILHNENSDRGGSSKHNTIKKLTLQSAKSRVAFFEEL

Variants of: B1
Conditions: with merl_human NF2, P35240

Variant	effect of a mutation on the interaction
K144R	disrupting interaction

Variants of: B2
Conditions: with MAP3K11, Q16584

Variant	effect of a mutation on the interaction
MAGAIASRMSFSSLKRKQPKTFTVRIVTMDAEMEFNCEMKWKGKDLFDLVCRTLGLRETWFFGLQYTIKDTVAWLKMDKKVLDHDVSKEEPVTFHFLAKFYPENAEEELVQEITQHLFFLQVKKQILDEKIYCPPEASVLLASYAVQAKYGDYDPSVHKRGFLAQEELLPKRVINLYQMTPEMWEERITAWYAEHRGRARDEAEMEYLKIAQDLEMYGVNYFAIRNKKGTELLLGVDALGLHIYDPENRLTPKISFPWNEIRNISYSDKEFTIKPLDKKIDVFKFNSSKLRVNKLILQLCIGNHDLFMRRRKADSLEVQQMKAQAREEKARKQMERQRLAREKQMREEAERTRDELERRLLQMKEEATMANEALMRSEETADLLAEKAQITEEEAKLLAQKAAEAEQEMQRIKATAIRTEEEKRLMEQKVLEAEVLALKMAEESERRAKEADQLKQDLQEAREAERRAKQKLLEIATKPTYPPMNPIPAPLPPDIPSFNLIGDSLSFDFKDTDMKRLDMEIEKEKVEYMEKSKHLQEQLNELKTEIEALKLKERETALDILHNENSDRGGSSKHNTIKKLTLQSAKSRVAFFEEL [S518D]	decreasing interaction
